We go through 1 molecule from paper PMC13546301, “Ternary Neurexin-T178-PTPR complexes represent a pre-synaptic core-module of neuronal synapse organization” (Nature Communications, 2026).

The experiment deals with T1, V5-tagged PTPRS (UniProt B0V2N1 30-1907).
T1 construct: Receptor-type tyrosine-protein phosphatase S; cDNA GenBank BC083188.1; also called PTPRSV5; source: tsA201 cells, transfected, CL-91-solubilised membrane fraction; not shown: V5, C-terminal, kept
The experiment in a line: affinity purification with mass spectrometry; anti-V5 APs from tsA201 cells expressing NRX1A and PTPRS-V5 with or without T178B; normalized abundance of NRX1A by MS, two independent APs with two controls. Particulars: partners not purified.

T1 sequence (B0V2N1 30-1907): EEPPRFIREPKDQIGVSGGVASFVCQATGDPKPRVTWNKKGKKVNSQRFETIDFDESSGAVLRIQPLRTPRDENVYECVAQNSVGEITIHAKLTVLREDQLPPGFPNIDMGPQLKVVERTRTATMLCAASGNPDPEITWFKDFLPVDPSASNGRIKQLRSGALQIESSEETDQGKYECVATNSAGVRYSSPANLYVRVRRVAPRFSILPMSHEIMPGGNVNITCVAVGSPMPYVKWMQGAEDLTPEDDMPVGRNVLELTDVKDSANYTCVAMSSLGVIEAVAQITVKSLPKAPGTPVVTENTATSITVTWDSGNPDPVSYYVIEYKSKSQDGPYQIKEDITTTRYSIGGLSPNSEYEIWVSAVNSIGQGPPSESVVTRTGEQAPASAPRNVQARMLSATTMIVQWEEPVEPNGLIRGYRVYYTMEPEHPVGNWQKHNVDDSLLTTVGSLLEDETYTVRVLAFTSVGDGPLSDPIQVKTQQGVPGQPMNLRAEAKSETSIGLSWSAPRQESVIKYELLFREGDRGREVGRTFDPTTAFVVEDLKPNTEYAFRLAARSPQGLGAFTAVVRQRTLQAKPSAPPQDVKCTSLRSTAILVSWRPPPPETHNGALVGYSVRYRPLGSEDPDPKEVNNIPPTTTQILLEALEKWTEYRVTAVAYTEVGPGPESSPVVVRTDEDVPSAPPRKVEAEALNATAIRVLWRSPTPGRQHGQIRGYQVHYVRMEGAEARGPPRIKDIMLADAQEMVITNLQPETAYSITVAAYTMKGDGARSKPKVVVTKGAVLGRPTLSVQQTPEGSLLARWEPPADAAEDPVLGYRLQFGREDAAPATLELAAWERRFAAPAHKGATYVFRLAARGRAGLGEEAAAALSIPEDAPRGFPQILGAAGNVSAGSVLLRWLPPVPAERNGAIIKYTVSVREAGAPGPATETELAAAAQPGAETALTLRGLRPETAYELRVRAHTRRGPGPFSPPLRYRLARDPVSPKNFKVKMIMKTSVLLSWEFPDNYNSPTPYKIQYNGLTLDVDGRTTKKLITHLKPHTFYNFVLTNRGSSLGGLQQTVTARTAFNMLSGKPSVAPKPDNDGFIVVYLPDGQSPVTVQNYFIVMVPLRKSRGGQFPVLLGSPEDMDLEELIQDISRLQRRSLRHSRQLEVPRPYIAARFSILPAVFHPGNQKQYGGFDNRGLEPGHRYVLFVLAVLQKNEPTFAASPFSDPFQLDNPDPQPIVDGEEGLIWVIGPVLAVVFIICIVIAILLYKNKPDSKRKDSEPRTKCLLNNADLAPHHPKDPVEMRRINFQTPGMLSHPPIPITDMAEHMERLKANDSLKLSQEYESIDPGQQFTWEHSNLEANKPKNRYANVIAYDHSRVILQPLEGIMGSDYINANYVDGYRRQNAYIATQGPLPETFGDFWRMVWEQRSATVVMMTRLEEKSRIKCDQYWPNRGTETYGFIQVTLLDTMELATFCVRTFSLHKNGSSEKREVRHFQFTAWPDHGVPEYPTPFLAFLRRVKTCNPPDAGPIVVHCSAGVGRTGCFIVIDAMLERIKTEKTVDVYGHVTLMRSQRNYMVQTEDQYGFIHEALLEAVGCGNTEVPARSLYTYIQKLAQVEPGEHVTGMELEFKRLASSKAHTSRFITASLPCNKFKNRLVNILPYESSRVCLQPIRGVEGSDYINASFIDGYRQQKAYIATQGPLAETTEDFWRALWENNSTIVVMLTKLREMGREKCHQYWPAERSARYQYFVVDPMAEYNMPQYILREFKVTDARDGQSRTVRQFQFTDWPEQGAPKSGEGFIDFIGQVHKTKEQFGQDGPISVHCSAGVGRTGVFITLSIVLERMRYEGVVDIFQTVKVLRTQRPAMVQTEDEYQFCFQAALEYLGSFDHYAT

B1: HA-tagged NRX1A (natural protein)
chain: not shown
notes: Neurexin-1-alpha; in pCAG, from Addgene (#58622); also called NRX1A-HA; source: tsA201 cells, transfected, CL-91-solubilised membrane fraction
In the case of B1, the “fold increase of the interaction with T178B against pairwise expression without T178B” value stood at 10 fold.
